# Source: the DeepSol protein solubility set
# Assay: soluble on expression in E. coli; label from the status in PepcDB or PDB records
row,Sequence,soluble on expression in E. coli
1,MTQLPPAIFLMGPTAAGKTDLAIELTKVLPCELISVDSALVYRGMDIGTAKPSRELLAQFPHRLIDILDPAESYSAADFRTDALAAMADITARGKIPLLVGGTMLYYKALLEGLADMPAADPQVRAELEEEAARLGWQALHDQLAAVDPESAARIHPNDPQRLTRALEVYRVSGLTMTAHRQRQLAQSTEAGASGRSQLPYTVANLAIAPANRQVLHQRIAQRFTQMLEQGFIDEVVALRSRSDLHAGLPSIRAVGYRQVWDHLDGKLTSAEMQERGIIATRQLAKRQFTWLRSWADLQWLDSLDCDNLPRALKYLGTISILSLEHHHHHH,not soluble
2,MKKAVVVFSGGQDSTTCLVQALKEFDEVHAITFDYGQRHKLEIEVAQKIAKDLGVKAHKVMDVGLLNELAISSLTRDDIPVSHELQENGLPNSFVPGRNILFLTLAGIYAYQIGADTVITGVCETDFSGYPDCRDDFVKSMNTALVKGMDRALTIKTPLMWLNKAETWALADQYNALQLVRENTLTCYNGIIGDGCGDCPSCDLRKAGLDEYLNNKDAVMKSLVQKQESEGL,not soluble
3,MWRRSLTESHSNELRLELTSRIVSAYLSRNVIAPSELPHLIQQTYGSLGKTSEPTKTPATVEEQRPAVPIKKSVTDDFIVCLEDGKSFKSLKRHLMAKYALTPEQYREKWKLPADYPMVAPNYARKRSELARATGLGKKSAANLSPSLQAVRSA,not soluble
4,ATSYMTCSAYQKVQDSEISFPAGVEVQVLEKQESGWWYVRFGELEGWAPSHYLVLDENEQPDPSGKE,soluble
5,MSFQLHPDTTLDVVHLYVSNVKKSLEFYTEVLSMKVLKEEEAVVTFGNENDEPLLIIEEKKEAFPKQRGRTGLYHYAILLPSRQDLANVLRHLVEMVYPLHGGADHYFSEALYLADPDGNGIEIYHDRQKEVWRDENGELPFVSNPLAGEELLQQGSTWNGFPAGTVMGHIHFHVADLEEAKCFYVDGLGFEVTIPARNGALFVSAGGYHHHIGLNTWQGEGVPPQMPGSVGLKYFTIVLADEKQKEQVCESLKNIGKIATYKDGILQVEDPFGHCIHFKIKGEA,not soluble
6,MKYSSFLKQAEENLVPIFSEIDAKVKENLYKVIEAFRHHRVGVQHFAGVSGYGHDDLGRDTLDGVFAQVMGAESAAVRVQFVSGTHAIACALYGILRPGDELLSAVGSPYDTLEEVIGLRGSCQGSLADFNISYRQLPLTAAGTVDWQGLETAVRPETRLVLIQRSCGYSWRPSLAIADIARIIEIVKAQNPRTLCFVDNCYGEFIETVEPTAIGVDLMAGSLIKNPGGTIVTAGGYLAGKEEWVEAGAYRLTAPGIGLEHHHHHH,not soluble
7,MSSIVCHPILDSQNGIATDAVIKKQRPPPLVLSRPKDLIQEACQRLVLSDQQLRRIMQSMEKSMEQGLATSTKKVAVKMLPTYVDSVPNGTESGDFLALDLGGTNFRVLHIKLQGKETKMTGKIFRVPESIMRGTGEALFDHIAGCMAKFMGENDLKDAQKLPLGFTFSFPCEQEGLTKGKLVTWTKGFKASGVEGVDVVTLLHEACHRRKDIDIDVVALLNDTVGTLMACAFQENSCQIGVIVGTGTNACYMERLDRIPKLAGYVDEHGVTPEEMIINTEWGAFGDDGALDFLRTEWDEVVDRESINPGQHLYEKMISGMYMGECARVVLEDLAKQGLLFGGNSDAISVPHCFPTKFVSEIDSDLLEDDDRTFQKTYQILEDIGVEMITANDCANVAYVCSLISTRAAHLTAAGIAMLLNRMNKKHVTVGVDGSVYRFHPTYPTLLDAKIGELIVGDIEYKLMLSEDGSGRGAALVAAVATRLKEEKLAASLSSSSSNQ,not soluble
8,MKFPKDFMIGYSSSPFQFEAGIPGSEDPNSDWWVWVHDPENTAAGLVSGDFPENGPGYWNLNQNDHDLAEKLGVNTIRVGVEWSRIFPKPTFNVKVPVERDENGSIVHVDVDDKAVERLDELANKEAVNHYVEMYKDWVERGRKLILNLYHWPLPLWLHNPIMVRRMGPDRAPSGWLNEESVVEFAKYAAYIAWKMGELPVMWSTMNEPNVVYEQGYMFVKGGFPPGYLSLEAADKARRNMIQAHARAYDNIKRFSKKPVGLIYAFQWFELLEGPAEVFDKFKSSKLYYFTDIVSKGSSIINVEYRRDLANRLDWLGVNYYSRLVYKIVDDKPIILHGYGFLCTPGGISPAENPCSDFGWEVYPEGLYLLLKELYNRYGVDLIVTENGVSDSRDALRPAYLVSHVYSVWKAANEGIPVKGYLHWSLTDNYEWAQGFRQKFGLVMVDFKTKKRYLRPSALVFREIATHNGIPDELQHLTLIQ,soluble
9,MMRMKVKVVVNGKEYEVEVEEVMPGKFRVTLEGETYEVETSAGFVTSPKQVQVPTPAPTPAPAPTPTPAPAPSSKTVVSENVVSAPMPGKVLRVLVRVGDRVRVGQGLLVLEAMKMENEIPSPRDGVVKRILVKEGEAVDTGQPLIELG,soluble
10,MDKYHSMKELQNETIENEDWEIITEDRDSNVTILAIHGGGIEPATTELARVIANDGQFNYFAFNGMRTKGNNELHVTSINYDNDIAMDLVKTSESAITIHGCLGEDEIAYIGGKDNLLKERIVEELSQIGIEVKEAPSHMSGTQDNNIVNCTKNGVGVQIELTSSLRKSLFKNNKFNRKSRMDESNWDDKMYDFGQAINSAINLEHHHHHH,soluble
11,MGSDKIHHHHHHMETITIDEKTLYNLTQPSEVIEELTHLNGNLTLVPNILSEDALLNKSVKEIEKIALEEADKTSPKHVRGKKIRRKGYAKYRFLKGFKIMLKGREDIYKLERISVELPVLYSDKGRVKTQVEERLLREEKVFKALMTVYSVLGGKLNAKLWMLEIQASGDFKYVIVDGKYVKLKGGRGSFSAIGVTEEGKRAVLDITLSVEKDVMSYWRLLVEVWKKYSFVLVVVDGTKALDKISLAELQVRRQGCLVHLKRNATKEEREALNVIFSAESGEIKPETCPRLLSYLSTPKELWRWLKSNNLIESFNSLLERRRFGSFHSPWRILQIARTIANNYNLSVVFHQFY,not soluble
12,MGSDKIHHHHHHMELLECVEHVIKTRRSHRLYLDKPVEREKLEKMIELAMWAPSAMNRQQWFFVVVAGKRLKEMIGIVEKGYEHILPRLQRFFAETPKVIEQTRRFFKSLGNAPAAVFAYYTPTGDDYSDVQSVSAAIQNMLLAAHAMGLGTCWMTGPVHVEEEINKALGVEGKKLVAVITVGYPAKQPPVPPRRDSEKKVVWMLD,not soluble
13,MLKEAIYHRPKDNYAYAYDEKTIHIRIRTKRDDVQSTTLIYGDPYEWKDGKWISSSTPMKKTGSTALFDYWFISIEPKFKRLRYGFELKNDTDTLIYAERGFFSTTPNDDVGNFFCFPFIHANDVFKAPSWIKDTVWYQIFPERFANGDHTLNPENTLPWGSAEPTPTNFFGGDFAGIIQNLDYLVKLGISGIYFTPIFKAHSNHKYDTIDYMEIDPQFGTKETFKELVQACHTHGIKVMLDAVFNHSGYFFDKFQDVLQNGEQSAYKEWFHIHEFPIRTEPLPNYDTFAFTPYMPKLNTAHPDVKEYLLEVGRYWVREFNIDGWRLDVANEVDHNFWREFRSEIKALNSEVYILGEIWHDALPWLQGDQFDAVMSYPVTNALLSYFANDSIKANEFMKQITESLHSYSMNVNEAAFHLLDSHDTPRILTTCNGDKNKLKLLYVFHLSFIGSPCIYYGDEIGMDGGMDPDCRKCMVWDTEEQDHTLFTHVQTLISLRKQYKAFGGHGTFQFIEANDEYNYISYTKTYEDETIFFVLNPTNSDITASLPLHVTGKKIINIYTNEEFSAEASVLQVTLPPYGFSILKW,not soluble
14,MALVRPFPIVQVVGFQNSGKTTFIERILEKASEQGVHLGCLKHHGHGGEPQTLTEGKDTDRYKAAGADVTAVEGAGVLQLTARRNWDLARLIELYQFLETDCLLIEGFKKAPYPKVVILSEKEDLEALQAVNIIAIIYRKKEHMTEHQGLPVFHADDPVAVDFVLSQLKGESA,soluble
15,GMVTTRKPLRAAIIGLGRLGERHARHLVNKIQGVKLVAACALDSNQLEWAKNELGVETTYTNYKDMIDTENIDAIFIVAPTPFHPEMTIYAMNAGLNVFCEKPLGLDFNEVDEMAKVIKSHPNQIFQSGFMRRYDDSYRYAKKIVDNGDIGKIIYMRGYGIDPISGMESFTKFATEADSGGIFVDMNIHDIDLIRWFTGQDPVQAYGLTSNIAAPQLADIGEFETGVAQLKMSDGVIATLIGGRHAAHGNQVELEVMGSNGWVRIGEHPDLNRVTVFNDQGVVRPSLQSFGERFDTAFTDEVQDFVNNVIVGKQPEVTVDDGIKALKIAKACQQSANIGKLVDIQL,soluble
16,GSKKSRLWVDRSGTFKVDAEFIGCAKGKIHLHKANGVKIAVAADKLSNEDLAYVEKITGFSLEKFKAN,soluble
17,SLFKTKWFAREARSHAITDEELCRAILETEQGKADALGGGVFKKRLHQNRERAIILAKGVSNWFYTFLYAKQDMSNINSQELAGFREIAKHYAFLTKAQLTAMINTKELTEICYDCKN,not soluble
18,MGSDKIHHHHHHMSHSLTSVFQKIDSLKPQFFSRLTKAIQIPAVSSDESLRSKVFDKAKFISEQLSQSGFHDIKMVDLGIQPPPISTPNLSLPPVILSRFGSDPSKKTVLVYGHYDVQPAQLEDGWDTEPFKLVIDEAKGIMKGRGVTDDTGPLLSWINVVDAFKASGQEFPVNLVTCFEGMEESGSLKLDELIKKEANGYFKGVDAVCISDNYWLGTKKPVLTYGLRGCNYYQTIIEGPSADLHSGIFGGVVAEPMIDLMQVLGSLVDSKGKILIDGIDEMVAPLTEKEKALYKDIEFSVEELNAATGSKTSLYDKKEDILMHRWRYPSLSIHGVEGAFSAQGAKTVIPAKVFGKFSIRTVPDMDSEKLTSLVQKHCDAKFKSLNSPNKCRTELIHDGAYWVSDPFNAQFTAAKKATKLVYGVDPDFTREGGSIPITLTFQDALNTSVLLLPMGRGDDGAHSINEKLDISNFVGGMKTMAAYLQYYSESPEN,not soluble
19,MSLNVFNTASDEDIKKGLASDVYFERTISAIGDKCNDLRVAMEATVSGPLDTWINFTGLDEVLKLLEGLDVDLYAIPEGTILFPRDANGLPVPFIRVEGRYCDFGMYETAILGFICQASGISTKASKVRLAAGDSPFFSFGIRRMHPAISPMIDRSAYIGGADGVSGILGAKLIDQDPVGTMPHALSIMLGDEEAWKLTLENTKNGQKSVLLIDTYMDEKFAAIKIAEMFDKVDYIRLDTPSSRRGNFEALIREVRWELALRGRSDIKIMVSGGLDENTVKKLREAGAEAFGVGTSISSAKPFDFAMDIVEVNGKPETKRGKMSGRKNVLRCTSCHRIEVVPANVQEKTCICGGSMQNLLVKYLSHGKRTSEYPRPKEIRSRSMKELEYFKDISEGHHHHHH,soluble
20,MGSDKIHHHHHHMSSHQPAPPARPTNKVFIIGLPRTGTTSVSVALLEMGLRVAHQAFTKQAVILADAISDAPCFSDYRQLHSLYPDAKFIYLDRPLDAWVPSMQMLLSRMLVHLDKERGRFHPLLKRSFGHTFGIYRVADPMDAEHLKTCYQVHKQQVFDYFHQDQGLAQQFLSLQLDDPQSLPRLANFIGLDAQVDSPQLAFPHLNRGRNVASWDEYKHELKISSNLAGPENRKYFNYKI,not soluble
21,MRIFEPGLCSVTFRSLSPQAVIDLAVANGIRAIEWGADIHVPAGDLENARDVAERTAKAGLAVSSYGSYIFAPDFTRKDLTAVLETAKALGTGHIRIWPGQRKRPSTDYSPAERRTATEALAEIARQAQDYDMTIGLEYHPNSLTDTLPSALQLAQDLALPNLFFYWQPAPGLPLEKALAEISKIGSRVCHLHIFAWLADTNRLPLADRVDYWQSCVEALPESEWTKPAYAMLEFVKGDDVGQFAEDAVTLSEILAGHRVADLEHHHHHH,soluble
22,GPGSMTKGGSSVAEDAQLRAADTFEEAQTLLDVMLKQFHTMERNRTDPFISKVVIAGELKEDSSRPFSQVFQELIDAATVKSRNPLSEQSCPPSPPSGIFLDYGTHFVGLFEAVDRYVAELLILMDAECKSTEEPIFSDVRVLYLNDDVVPLGGQYVCFVDKIPGVVAQSEKVDVPEDVIAEMVADDVRKLTKLLSLVLSEGVSKRKNFLDNARTSHPTLFPNTSSLKMYVKSDLFLTLDEYHRVFGKLPELVRDVEVNHPVDQPLKY,soluble
